Source: patent US11618906B2, “Hydroxylation techniques” (HYPHA DISCOVERY LTD., priority 2018, dated 2023)

Legend:
Type in all cases: biochemical
[1] = Hydroxylation / de-N-ethylation of napropamide catalysed by cytochrome P450 aluC09 and mutants; conditions: for Desethyl Napropamide (1.62 min) / Desethyl-hydroxy-Napropamide (1.41 min) / Hydroxy-Napropamide (1) (1.53 min) / Hydroxy-Napropamide (2), (1.52 min) / M-2Da (unidentified) (1.89 min) / Napropamide (substrate): % by UV peak area at 275 nm, 0.125 mg/ml substrate, 27° C., 16-20 hours; for Hydroxylated Ratio 2:1: napropamide, ratio of UV peak areas
Procedure, shortened: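 Conversion of napropamide (0.125 mg/ml) to hydroxylated and de-ethylated metabolites was measured by UPLC-MS after acetonitrile extraction. Reactions ran 16-20 h at 27° C in pH 7.4 potassium phosphate (50 mM) with 5 mM MgCl2, 1 mM NADP, 5 mM G6P and 2 UN/ml G6PDH. Enzymes were lyophilised P450 aluC09 variants, ferredoxin aluF03 and ferredoxin reductase SCF15A.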

[2] = Metabolism of buparvaquone by P450 aluC09 and mutants; conditions: percent of substrate being converted; 0.125 mg/ml, 27° C., 16-20 hours; [CYP] per enzyme as in Table 8
Procedure, shortened: (§1)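 Read-out was substrate conversion by UPLC-MS after acetonitrile extraction. Reactions had contained lyophilised aluC09 mutant enzymes with ferredoxin and ferredoxin reductase partners, substrate at 0.125 mg/ml, and a glucose-6-phosphate dehydrogenase NADPH-regenerating system, shaken 16-20 hours at 27° C.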

[3] = Hydroxylation of diclofenac catalysed by cytochrome P450 aluC09 and mutants (UPLC-PDA-MS); conditions: for 4′,5-dihydroxy-diclofenac 1.38 mins / 4′-hydroxy-diclofenac (1) 1.62 mins / 5-hydroxy-diclofenac (2) 1.58 mins / Diclofenac (Substrate) 1.81 mins: % by UV peak area at 275 nm, 0.125 mg/ml substrate, 27° C., 16-20 hours; for Hydroxylated Ratio hydroxy 1:hydroxy 2: diclofenac, ratio of UV peak areas at 275nm
Procedure, shortened: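 Lyophilised CYP450aluC09 or mutants, with ferredoxin aluF03 and reductase SCF15A, incubated 16-20 hours at 27° C with 0.125 mg/ml diclofenac in 50 mM potassium phosphate pH 7.4, 5 mM MgCl2, and G6P/NADP/G6PDH regeneration. Acetonitrile-extracted; conversion by UPLC-PDA-MS against authentic hydroxylated standards.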

[4] = Metabolism of 4-pyrrolidylacetophenone by P450 aluC09 and mutants; conditions: percent of substrate being converted; 0.125 mg/ml, 27° C., 16-20 hours; [CYP] per enzyme as in Table 8
Procedure, shortened: as §1

[5] = Metabolism of tofacitinib by P450 aluC09 and mutants; conditions: percent of substrate being converted; 0.125 mg/ml, 27° C., 16-20 hours; [CYP] per enzyme as in Table 8
Procedure, shortened: as §1

[6] = Metabolism of ruxolitinib by P450 aluC09 and mutants; conditions: percent of substrate being converted; 0.125 mg/ml, 27° C., 16-20 hours; [CYP] per enzyme as in Table 8
Procedure, shortened: as §1

[7] = Metabolism of ritonavir by P450 aluC09 and mutants; conditions: percent of substrate being converted; 0.125 mg/ml, 27° C., 16-20 hours; [CYP] per enzyme as in Table 8
Procedure, shortened: as §1

[8] = Metabolism of bosentan by P450 aluC09 and mutants; conditions: percent of substrate being converted; 0.125 mg/ml, 27° C., 16-20 hours; [CYP] per enzyme as in Table 8
Procedure, shortened: as §1

[9] = Metabolism of tivantinib by P450 aluC09 and mutants; conditions: percent of substrate being converted; 0.125 mg/ml, 27° C., 16-20 hours; [CYP] per enzyme as in Table 8
Procedure, shortened: as §1

[10] = Metabolism of BIRB796 by P450 aluC09 and mutants; conditions: percent of substrate being converted; 0.125 mg/ml, 27° C., 16-20 hours; [CYP] per enzyme as in Table 8
Procedure, shortened: as §1

[11] = Metabolism of valsartan by P450 aluC09 and mutants; conditions: percent of substrate being converted; 0.125 mg/ml, 27° C., 16-20 hours; [CYP] per enzyme as in Table 8
Procedure, shortened: as §1

[12] = Metabolism of celecoxib by P450 aluC09 and mutants; conditions: percent of substrate being converted; 0.125 mg/ml, 27° C., 16-20 hours; [CYP] per enzyme as in Table 8
Procedure, shortened: as §1

[13] = Metabolism of epothilone B by P450 aluC09 and mutants; conditions: percent of substrate being converted; 0.125 mg/ml, 27° C., 16-20 hours; [CYP] per enzyme as in Table 8
Procedure, shortened: as §1

[14] = O-demethylation of indomethacin catalysed by cytochrome P450 aluC09 and mutants; conditions: % by UV peak area at 275 nm; 0.125 mg/ml substrate, 27° C., 16-20 hours
Procedure, shortened: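 Lyophilised CYP450aluC09 mutants with ferredoxin aluF03 and reductase SCF15A, 0.125 mg/ml substrate, 50 mM potassium phosphate pH 7.4, 5 mM MgCl2, G6P/G6PDH/NADP recycling. Shaken 16-20 h at 27° C. Acetonitrile-quenched, conversion measured by UPLC-MS.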

[15] = Hydroxylation of aceclofenac catalysed by cytochrome P450 aluC09 and mutants; conditions: for Aceclofenac (Substrate) (1.80 mins) / Dihydroxy-Aceclofenac (1.42 mins) / Hydroxy-Aceclofenac (1) (1.64 min) / Hydroxy-Aceclofenac (2) (1.60 min): % by UV peak area at 275 nm, 0.125 mg/ml substrate, 27° C., 16-20 hours; for Hydroxylated Ratio 2:1: aceclofenac, ratio of UV peak areas at 275 nm
Procedure, shortened: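 Conversion was assessed by UPLC-MS (UV and MS detection) after acetonitrile extraction of reactions run 16-20 h at 27° C, shaking. Reactions contained substrate at 0.125 mg/ml, P450 mutant plus ferredoxin and reductase partners, 1 mM NADP with glucose-6-phosphate regeneration, in phosphate buffer pH 7.4.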

[16] = Hydroxylation of flufenamic acid catalysed by cytochrome P450 aluC09 and mutants; conditions: for Flufenamic Acid (Substrate) 1.93 mins / Hydroxy-Flufenamic Acid (1) 1.69 mins / Hydroxy-Flufenamic Acid (2) 1.65 mins: % by UV peak area at 275 nm, 0.125 mg/ml substrate, 27° C., 16-20 hours; for Hydroxylated Ratio 1:2: flufenamic acid, ratio of UV peak areas at 275 nm
Procedure, shortened: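 Lyophilised CYP450aluC09 mutants with ferredoxin aluF03 and reductase SCF15A, in 50 mM potassium phosphate pH 7.4, 5 mM MgCl2, 0.125 mg/ml flufenamic acid, G6P/NADP/G6PDH NADPH regeneration. Shaken 16-20 h at 27° C; acetonitrile-quenched, conversion to two hydroxy products by UPLC-MS.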

Molecule	Desethyl Napropamide (1.62 min) [1]	Desethyl-hydroxy-Napropamide (1.41 min) [1]	Hydroxy-Napropamide (1) (1.53 min) [1]	Hydroxy-Napropamide (2), (1.52 min) [1]	M-2Da (unidentified) (1.89 min) [1]	Napropamide (substrate) [1]	Hydroxylated Ratio 2:1 [1]	% conversions (avg) Buparvaquone [2]	4′,5-dihydroxy-diclofenac 1.38 mins [3]	4′-hydroxy-diclofenac (1) 1.62 mins [3]	5-hydroxy-diclofenac (2) 1.58 mins [3]	Diclofenac (Substrate) 1.81 mins [3]	Hydroxylated Ratio hydroxy 1:hydroxy 2 [3]	% conversions (avg) 4-pyrrolidylacetophenone [4]	% conversions (avg) Tofacitinib [5]	% conversions (avg) Ruxolitinib [6]	% conversions (avg) Ritonavir [7]	% conversions (avg) Bosentan [8]	% conversions (avg) Tivantinib [9]	% conversions (avg) BIRB796 [10]	further results
aluC09M17: cytochrome P450 aluC09 mutant T291N; amino acid sequence SEQ ID NO: 16 (protein, listed as Amycolatopsis lurida) MTDVEETTATLPLARKCPFSPPPEYERLRRESPVSRVGLPSGQTAWALTRLEDIREMLSSPHFSSDRQSPSFPLMVARQIRREDKPFRPSLIAMDPPEHSRARRDVVGEFTVKRMKALQPRIQQIVDEHLDALLAGPKPADLVQALSLPVPSLVICELLGVPYSDHEFFQSCSSRMLSREVTAEERMTAFEQLENYLDELVTKKEANATEDDLLGRQILKQRETGEADHGELVGLAFLLLIAGHETTANMISLGTVTLLENPDQLAKIKADPGKTLAAIEELLRVFTIAENATSRFATADVEIGGTLIRAGEGVVGLSNAGNHDPDGFENPDTFDIERGARHHVAFGFGVHQCLGQNLARLELQIVFDTLFRRVPGLRIAVPVDELPFKHDSTIYGLHALPVTW	53.7%	10.6%	0.9%	3.1%	6.0%	28.7%	3.4	17.9%	3.2%	44.8%	21.8%	32.3%	2.1	21.7%	4.4%	33.9%	51.7%	100%	53.9%	23.2%	% conversions (avg) Valsartan [11]: 21.9%; % conversions (avg) Celecoxib [12]: 8.1%; % conversions (avg) Epothilone B [13]: 16.8%; Indomethacin (1.74 mins) [14]: 84.4%; O-demethyl-Indomethacin (1.52 mins) [14]: 15.6%; Aceclofenac (Substrate) (1.80 mins) [15]: 9.2%; Dihydroxy-Aceclofenac (1.42 mins) [15]: 43.2%; Hydroxy-Aceclofenac (1) (1.64 min) [15]: 6.9%; Hydroxy-Aceclofenac (2) (1.60 min) [15]: 40.8%; Hydroxylated Ratio 2:1 [15]: 5.9; Flufenamic Acid (Substrate) 1.93 mins [16]: 94.4%; Hydroxy-Flufenamic Acid (1) 1.69 mins [16]: 3.4%; Hydroxy-Flufenamic Acid (2) 1.65 mins [16]: 2.2%; Hydroxylated Ratio 1:2 [16]: 1.6
aluC09M31: cytochrome P450 aluC09 mutant T291S; amino acid sequence SEQ ID NO: 36 (protein, listed as Amycolatopsis lurida) MTDVEETTATLPLARKCPFSPPPEYERLRRESPVSRVGLPSGQTAWALTRLEDIREMLSSPHFSSDRQSPSFPLMVARQIRREDKPFRPSLIAMDPPEHSRARRDVVGEFTVKRMKALQPRIQQIVDEHLDALLAGPKPADLVQALSLPVPSLVICELLGVPYSDHEFFQSCSSRMLSREVTAEERMTAFEQLENYLDELVTKKEANATEDDLLGRQILKQRETGEADHGELVGLAFLLLIAGHETTANMISLGTVTLLENPDQLAKIKADPGKTLAAIEELLRVFTIAESATSRFATADVEIGGTLIRAGEGVVGLSNAGNHDPDGFENPDTFDIERGARHHVAFGFGVHQCLGQNLARLELQIVFDTLFRRVPGLRIAVPVDELPFKHDSTIYGLHALPVTW	44.8%	4.6%	2.4%	5.1%	7.0%	37.9%	2.1	11.3%	3.3%	43.3%	22.8%	32.3%	1.9	4.9%	1.5%	41.7%	73.5%	99%	56%	15.3%	% conversions (avg) Valsartan [11]: 33.9%; % conversions (avg) Celecoxib [12]: 3.6%; % conversions (avg) Epothilone B [13]: 35.3%; Indomethacin (1.74 mins) [14]: 84.8%; O-demethyl-Indomethacin (1.52 mins) [14]: 15.2%; Aceclofenac (Substrate) (1.80 mins) [15]: 12.3%; Dihydroxy-Aceclofenac (1.42 mins) [15]: 43.1%; Hydroxy-Aceclofenac (1) (1.64 min) [15]: 8.5%; Hydroxy-Aceclofenac (2) (1.60 min) [15]: 36.1%; Hydroxylated Ratio 2:1 [15]: 4.2; Flufenamic Acid (Substrate) 1.93 mins [16]: 89.1%; Hydroxy-Flufenamic Acid (1) 1.69 mins [16]: 6.8%; Hydroxy-Flufenamic Acid (2) 1.65 mins [16]: 4.1%; Hydroxylated Ratio 1:2 [16]: 1.7
aluC09M36: cytochrome P450 aluC09 mutant T291F; amino acid sequence SEQ ID NO: 56 (protein, listed as Amycolatopsis lurida) MTDVEETTATLPLARKCPFSPPPEYERLRRESPVSRVGLPSGQTAWALTRLEDIREMLSSPHFSSDRQSPSFPLMVARQIRREDKPFRPSLIAMDPPEHSRARRDVVGEFTVKRMKALQPRIQQIVDEHLDALLAGPKPADLVQALSLPVPSLVICELLGVPYSDHEFFQSCSSRMLSREVTAEERMTAFEQLENYLDELVTKKEANATEDDLLGRQILKQRETGEADHGELVGLAFLLLIAGHETTANMISLGTVTLLENPDQLAKIKADPGKTLAAIEELLRVFTIAEFATSRFATADVEIGGTLIRAGEGVVGLSNAGNHDPDGFENPDTFDIERGARHHVAFGFGVHQCLGQNLARLELQIVFDTLFRRVPGLRIAVPVDELPFKHDSTIYGLHALPVTW	40.5%	3.1%	1.2%	3.5%	6.3%	46.8%	3.0	9.5%	3.6%	42.8%	23.0%	33.0%	1.9	6.8%	2.4%	42.1%	73.8%	99.5%	30.4%	20%	% conversions (avg) Valsartan [11]: 45.7%; % conversions (avg) Celecoxib [12]: 5.7%; % conversions (avg) Epothilone B [13]: 62.3%; Indomethacin (1.74 mins) [14]: 80.3%; O-demethyl-Indomethacin (1.52 mins) [14]: 19.7%; Aceclofenac (Substrate) (1.80 mins) [15]: 9.3%; Dihydroxy-Aceclofenac (1.42 mins) [15]: 44.6%; Hydroxy-Aceclofenac (1) (1.64 min) [15]: 7.2%; Hydroxy-Aceclofenac (2) (1.60 min) [15]: 38.9%; Hydroxylated Ratio 2:1 [15]: 5.4; Flufenamic Acid (Substrate) 1.93 mins [16]: 89.8%; Hydroxy-Flufenamic Acid (1) 1.69 mins [16]: 7.7%; Hydroxy-Flufenamic Acid (2) 1.65 mins [16]: 2.6%; Hydroxylated Ratio 1:2 [16]: 3.0
